The values below come from paper PMC6943233, “Disorder‐to‐order transition in PE–PPE proteins of Mycobacterium tuberculosis augments the pro‐pathogen immune response” (FEBS Open Bio, 2019).

In this experiment the target is T1, PPE68 (Mycobacterium tuberculosis, UniProt P9WHW9 1-368).
T1 construct: also called recombinant PPE68
T1 sequence: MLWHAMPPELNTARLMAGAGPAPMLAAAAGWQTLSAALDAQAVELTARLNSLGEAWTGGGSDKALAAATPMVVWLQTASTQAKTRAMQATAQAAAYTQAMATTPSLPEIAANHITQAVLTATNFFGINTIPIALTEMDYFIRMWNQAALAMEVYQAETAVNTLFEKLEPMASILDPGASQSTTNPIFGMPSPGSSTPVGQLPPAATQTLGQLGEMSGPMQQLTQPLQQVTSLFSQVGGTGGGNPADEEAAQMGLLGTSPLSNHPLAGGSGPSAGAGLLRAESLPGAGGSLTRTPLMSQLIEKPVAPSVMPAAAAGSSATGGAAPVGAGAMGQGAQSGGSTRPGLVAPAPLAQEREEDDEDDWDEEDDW
The experiment can be described thus: other fluorescence titration; intrinsic fluorescence of the PPE protein (10 μg) with the tryptophan-free PE protein added (10 and 30 μg); excitation 280 nm, emission 300-340 nm, 25 ± 0.1 °C. The following applies: both partners purified.

B1: PE35 (natural protein)
chain: MEKMSHDPIAADIGTQVSDNALHGVTAGSTALTSVTGLVPAGADEVSAQAATAFTSEGIQLLASNASAQDQLHRAGEAVQDVARTYSQIDDGAAGVFAE
notes: also called recombinant PE35
Consider B1, for which the binding result is reported as “binds”.
